The results in this text go back to paper doi:10.1101/2025.10.30.685675v2.

In the data set the test system is CCCC(=O)Oc1ccc([N+](=O)[O-])cc1. Nature of the data set: purified protein. As to conditions: pH 8.0; 25.0 °C.

For SfDLH (Solimonas fluminis), the Km (as a rule, the concentration of substrate that gives half-maximal velocity) is 160 µM.
